Experiment [1] deals with IgG (Gammanorm). In words: SPR (Biacore), variant amine-coupled to CM5 chip, Gammanorm as analyte, steady state affinity fit.
In experiment [2] the target is IgG (Gammanorm). In words: SPR (Biacore), variant amine-coupled to CM5 chip, Gammanorm as analyte, 1:1 kinetic fit.

Changes are numbered by the printed parent chain.

B1: Protein L variant pAM262 (domain D1-2; H10, H45, Y60) (protein)
chain: PKEEVTIKAHLIFADGKTQTAEFKGTFEEATAEAYRYADLLAKVHGEYTADLEDGGYTIYIKFAGKEQPGEN
B1: the Kd came out at 48 nM in experiment [1] and 11 nM in experiment [2].

B2: Protein L variant pAM248 (domain D1-1; H10, H45, Q60) (protein)
chain: B1 chain with Y60Q
With B2, the Kd in experiment [1] turned out to be 56 nM; in experiment [2] it was 16 nM.

B3: Protein L variant pAM247 (domain C4-1; H10, H45, Q60) (protein)
chain: PKEEVTIKVHLIFADGKTQTAEFKGTFEEATAEAYRYADLLAKVHGEYTADLEDGGYTIQIKFAGKEQPGENPG
Regarding B3, the Kd in experiment [1] turned out to be 38 nM; in experiment [2], 9 nM.

B4: Protein L variant pAM244 (domain C2b-1; H10, H45, Q60) (protein)
chain: B3 chain with E33K, R36A, V44E, Q68T, G70E, E71T, N72P, P73E, G74E
In the case of B4, the figures for the Kd in experiment [1] and in experiment [2] were 50 nM and 18 nM, respectively.

B5: Protein L variant pAM261 (domain C4-2; H10, H45, Y60) (protein)
chain: B3 chain with Q60Y
B5: the figures for the Kd in experiment [1] and in experiment [2] were 43 nM and 12 nM, respectively.

B6: Protein L variant pAM246 (domain C3b-1; H10, H45, Q60) (protein)
chain: PKEEVTIKVHLIFADGKIQTAEFKGTFEEATAKAYAYADLLAKEHGEYTADLEDGGYTIQIKFAGKETPETPEE
Take B6: the Kd in experiment [1] was determined as 49 nM; in experiment [2] it was 17 nM.

B7: Protein L variant pAM258 (domain C2b-2; H10, H45, Y60) (protein)
chain: B6 chain with I18T, Q60Y
As to B7, the Kd is 45 nM in experiment [1] and 17 nM in experiment [2].

B8: Protein L variant pAM257 (domain C2-2; H10, H45, Y60) (protein)
chain: B6 chain with I18T, Y57N, Q60Y
For B8, the Kd worked out at 98 nM in experiment [1] and 47 nM in experiment [2].

B9: Protein L variant pAM245 (domain C3-1; H10, H45, Q60) (protein)
chain: B6 chain with D39N, Y57N
Regarding B9, the figures for the dissociation constant (Kd) in experiment [1] and in experiment [2] were 134 nM and 65 nM, respectively.

B10: Protein L variant pAM259 (domain C3-2; H10, H45, Y60) (protein)
chain: B6 chain with D39N, Y57N, Q60Y
B10: the results for the Kd in experiment [1] and in experiment [2] were 120 nM and 55 nM, respectively.

B11: Protein L variant pAM260 (domain C3b-2; H10, H45, Y60) (protein)
chain: B6 chain with Q60Y
Consider B11, for which the Kd was 51 nM in experiment [1] and 18 nM in experiment [2].

B12: Protein L variant pAM243 (domain C2-1; H10, H45, Q60) (protein)
chain: B6 chain with I18T, Y57N
Consider B12, for which the Kd was 83 nM in experiment [1] and 39 nM in experiment [2].

B13: Protein L variant pAM251 (domain B2-2; H10, H45, Y60) (protein)
chain: PKEEVTIKAHLIYADGKTQTAEFKGTFEEAAAEAYRYADALKKDHGEYTVDVADKGYTLYIKFAGKEKTPEE
Regarding B13, the Kd amounted to 55 nM in experiment [1] and 20 nM in experiment [2].

B14: Protein L variant pAM238 (domain B3-1; H10, H45, Q60) (protein)
chain: B13 chain with A31T, A40L, K42A, D44E, E47K, Y60Q
With B14, the Kd worked out at 82 nM in experiment [1] and 25 nM in experiment [2].

B15: Protein L variant pAM237 (domain B2-1; H10, H45, Q60) (protein)
chain: B13 chain with Y60Q
As to B15, the figures for the Kd in experiment [1] and in experiment [2] were 72 nM and 27 nM, respectively.

B16: Protein L variant pAM252 (domain B3-2; H10, H45, Y60) (protein)
chain: B13 chain with A31T, A40L, K42A, D44E, E47K
Take B16: the equilibrium dissociation constant (Kd) in experiment [1] came to 69 nM; in experiment [2] it was 16 nM.

B17: Protein L variant pAM253 (domain B4-2; H10, H45, Y60) (protein)
chain: PKEEVTIKAHLIYADGKTQTAEFKGTFAEATAEAYRYADLLAKEHGKYTADLEDGGYTIYIRFAGKKVDEKPEE
For the molecule B17, the dissociation constant (Kd) in experiment [1] is 54 nM; in experiment [2], 14 nM.

B18: Protein L variant pAM239 (domain B4-1; H10, H45, Q60) (protein)
chain: B17 chain with Y60Q
For B18, the Kd in experiment [1] was 60 nM; in experiment [2] it was 17 nM.

B19: Protein L variant pAM249 (domain B1-2; H10, H45, Y60) (protein)
chain: SEEEVTIKAHLIFANGSTQTAEFKGTFEKATSEAYAYADTLKKDHGEYTVDVADKGYTLYIKFAGKEKTPEE
With B19, the equilibrium dissociation constant (Kd) in experiment [1] was 79 nM; in experiment [2], 29 nM.

B20: Protein L variant pAM235 (domain B1-1; H10, H45, Q60) (protein)
chain: B19 chain with Y60Q
As for B20, the Kd in experiment [1] stood at 101 nM; in experiment [2], 42 nM.

For the origin of these results see patent publication US20250196025A1.
